These results are taken from publication PMC10623405, “CsTT8 regulates anthocyanin accumulation in blood orange through alternative splicing transcription” (Horticulture Research, 2023).

Test [1] has as its target CsTT8 (TT8 with the full-length open reading frame) from blood orange 'Tarocco' (Citrus sinensis cv. 'Tarocco' (blood orange)).
Test [2] addresses CsTT8 (TT8 with the full-length open reading frame) from blood orange 'Tarocco' (Citrus sinensis cv. 'Tarocco' (blood …, UniProt A0A0U4H1K1 1-694)). Description: cell-based or functional assay.
Test [3] concerns the target Δ15-TT8 (alternative splicing transcript of CsTT8 with the fourth exon skipped) (Citrus sinensis cv. 'Tarocco' (blood orange)).

Δ15-TT8 (alternative splicing transcript of CsTT8 with the fourth exon skipped) (Citrus sinensis cv. 'Tarocco' (blood orange)), sequence (main, as listed by the source mutant): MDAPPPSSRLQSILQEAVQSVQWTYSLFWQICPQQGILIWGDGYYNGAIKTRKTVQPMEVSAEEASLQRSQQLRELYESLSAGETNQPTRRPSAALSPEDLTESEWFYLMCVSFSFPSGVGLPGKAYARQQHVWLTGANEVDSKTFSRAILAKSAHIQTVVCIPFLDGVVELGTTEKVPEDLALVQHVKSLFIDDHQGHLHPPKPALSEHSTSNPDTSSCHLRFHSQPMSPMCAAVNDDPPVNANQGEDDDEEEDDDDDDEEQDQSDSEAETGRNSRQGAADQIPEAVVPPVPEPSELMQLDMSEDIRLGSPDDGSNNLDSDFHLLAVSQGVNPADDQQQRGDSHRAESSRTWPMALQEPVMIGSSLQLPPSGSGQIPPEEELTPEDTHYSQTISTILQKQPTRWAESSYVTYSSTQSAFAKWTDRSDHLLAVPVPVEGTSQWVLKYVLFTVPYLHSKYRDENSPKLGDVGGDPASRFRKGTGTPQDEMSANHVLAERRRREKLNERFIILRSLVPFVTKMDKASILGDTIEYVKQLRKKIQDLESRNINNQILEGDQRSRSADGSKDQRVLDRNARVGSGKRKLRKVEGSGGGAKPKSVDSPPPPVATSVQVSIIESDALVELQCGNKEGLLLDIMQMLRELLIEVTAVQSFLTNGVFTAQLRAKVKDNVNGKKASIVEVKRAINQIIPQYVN
CsTT8 (TT8 with the full-length open reading frame) from blood orange 'Tarocco' (Citrus sinensis cv. 'Tarocco', sequence (A0A0U4H1K1 entry or part of it): as the sequence (main, as listed by the source mutant) above

For the molecule “MYB5 (an MYB-type transcription factor) from sweet orange (natural protein)”, in test [1], the dual luciferase reporter with the PH8 promoter in N. benthamiana leaves, effectors TT8 and MYB5, LUC/REN ratio came to 0.34 LUC/REN.

B1: RUBY1 (MYB-type transcription factor) from blood orange 'Tarocco' (natural protein, UniProt H6U1F1 1-262, looked up)
chain: MADSLGVRKGAWTGEEDDLLRKCIEKYGEAKWHQVPLRAGLHRCRKSCRLRWLNYLNPNIKRGEFAADEVDLILRLHKLLGNRWSLIVGRLPGRTANDVKNFWNTHLRKKVDKCCKNNKEMKAKAEKVEKINIIKPQPRTFAKNSQWLKGKGMTSNNLQLGDYNLGKQSTPSDHHHHHQQQQENETESVWWESFLFGDELDQQGISSSLSRPEEESTTANIFAEKSPVVTKVTENRVIEAGQSCPTDDFAFDAELWDLLNAK
Turning to B1, in test [2], the “dual luciferase reporter with the F3′H promoter in N. benthamiana leaves, effectors TT8 and RUBY1, LUC/REN ratio” value is 0.099 LUC/REN. The dual luciferase reporter with the F3′H promoter in N. benthamiana leaves, effectors Δ15-TT8 and RUBY1, LUC/REN ratio in test [3] stood at 0.042 LUC/REN.
